Assay: soluble on expression in E. coli; label from the status in PepcDB or PDB records

Sequence	soluble on expression in E. coli
MIILKLEDSWGFQISKIAQEMDSQFSKKLTKYDIGSREYGILLTIHQYALLTQLKIGELNKVDRTTIGQLVDLLERKDFVARQKNPKDRRQNLLVLTKTGRSLAEEMWQEMKEIEKDVLKHLSAKQKETLLTMVKAIRKGELN	not soluble
MEKPVFYLDRVGEENTEAVIGAAAKRAAELGISHIVVASTSGKTALKMAEAVKGSNIKVIGVSHQYGQKEKGEWEVGEEYRKKLEELGAVITTQSHMFSGIERSITKKFGGYSRIEVISDTLRSLFGKGFKVAIEVAIMAADSGHIPVSDDTEIIAIGGTRWGADVALVLRPAHSNDFFSLQVREIIAMPRAKEDLEHHHHHH	soluble
MSQVQEQHISESQLQYGNGSLMSTVPADLSQSVVDGNGNGSSEDIEATNGSGDGGGLQEQAEAQGEMEDEAYDEAALGSFVPIEKLQVNGITMADVKKLRESGLHTAEAVAYAPRKDLLEIKGISEAKADKLLNEAARLVPMGFVTAADFHMRRSELICLTTGSKNLDTLLGGGVETGSITELFGEFRTGKSQLCHTLAVTCQIPLDIGGGEGKCLYIDTEGTFRPVRLVSIAQRFGLDPDDALNNVAYARAYNADHQLRLLDAAAQMMSESRFSLIVVDSVMALYRTDFSGRGELSARQMHLAKFMRALQRLADQFGVAVVVTNQVVAQVDGGMAFNPDPKKPIGGNIMAYSSTTRLGFKKGKGCQRLCKVVDSPCLPEAECVFAIYEDGVGDPREEDE	soluble
PLTSTVNGYRNVGYFAQWGVYGRAFQAKQLDVSGTAKNLTHINYSFGNINNQTLTCFMANKAQGTGPNGSDGAGDAWADFGMGYAADKSVSGKADTWDQPLAGSFNQLKQLKAKNPKLKVMISLGGWTWSKNFSKAAATEASRQKLVSSCIDLYIKGNLPNFEGRGGAGAAAGIFDGIDIDWEWPGTNSGLAGNGVDTVNDRANFKALLAEFRKQLDAYGSTNNKKYVLSAFLPANPADIDAGGWDDPANFKSLDFGSIQGYDLHGAWNPTLTGHQANLYDDPADPRAPSKKFSADKAVKKYLAAGIDPKQLGLGLAAYGRGWTGAKNVSPWGPATDGAPGTYETANEDYDKLKTLGTDHYDAATGSAWRYDGTQWWSYDNIATTKQKTDYIVSKGLGGGMWWELSGDRNGELVGAMSDKFRAAAPGPVTEAAPP	soluble
MARVVVDAQAARAIGKGAMIVFKKGVVRVEGDIKPGDIVEVYTRGGKFLGKGFANPNSNIMVRIVTKDKDVEINKDLFKRRIKKANEYRKKVLKYTNVYRMVYGEADYLPGLIVDRFNDIASLQISSAGMERFKLDVAEAIMEVEPGIETVFEKNTGRSRRREGLPEIERVLLGKEKYRTIIQEGRAKFIVDMRGQKTGFFLDQRENRLALEKWVQPGDRVLDVFTYTGGFAIHAAIAGADEVIGIDKSPRAIETAKENAKLNGVEDRMKFIVGSAFEEMEKLQKKGEKFDIVVLDPPAFVQHEKDLKAGLRAYFNVNFAGLNLVKDGGILVTCSCSQHVDLQMFKDMIIAAGAKAGKFLKMLEPYRTQAPDHPILMASKDTEYLKCLFLYVEDMR	soluble
MAENRYELNKNLAQMLKGGVIMDVQNPEQARIAEAAGAAAVMALERIPADIRAVGGVSRMSDPKMIKEIQGAVSIPVMAKVRIGHFVEAQILEAIEIDYIDESEVLSPADNRFHVDKKEFQVPFVCGAKDLGEALRRIAEGASMIRTKGEPGTGDIVQAVRHMRMMSQEIRRIQNLREDELYVAAKDLQVPVELVQYVHKHGKLPVVNFAAGGIATPADAALMMQLGAEGVFVGSGIFKSGDPIKRASAIVKAVTNYRNPQILAQISEDLGEAMVGINENEIQILMAERGKLEHHHHHH	not soluble
MGSDKIHHHHHHAADRPTQPVRTEVYRLERLDSVLLVDLAVDLTGVHLAPDCTVYLFPLLASENTGDSLSLPPIVLNGPQSDLMYRRRRALGTTSGLEKITPYTVLREGDHALPRIHYRTEVPYAAWMDDVKVWMRDTNCNCDARLVPFAMHTEHIPPLVVERVDTIVIHDTIRLASVASGQSTVASDIPLRKKVTRIQAGYEADIYFPTNEMRILPDHELNRASWMHFVNQVDSIEQDNRNSISGVTVTGYSSPEGYTSNNERLAEKRAKALQAFLENKYGERMEVAVEWVGEDWKQFEKDIEVSDLPERNEILSILRTVSDSNQRKSRLKALNKGKTFGILLREYFPKLRRVSCRIRYVK	not soluble
MGSDKIHHHHHHCSCNDLLDEKAYDFVSPEQLGDSESAASQLVTGAYNTVITSFIAPGSYLYLTNMDCDYASGASWAFGNVGAGNPQGFWGIDHMWQGSYTLIHRANLGISKISAMSNLSQESKQDALAQLCFLKAWAYFNLVRNYGPVPIFRKSISEGEAMSQPRASVSDVYAHIIELLEQAEGMYSKDDAGFVVGHASNGAAKALLAKVYVTMASGAMSGVPIVVKGGNPNIFEPQPITHIAKTVAGYESFDPAKYYALARDKAWEVINEYTLFDNYMDVWAIGNRNKGEHIWMAQAISGDKDFGNTICQDYVGIFKEDGTMEGNWYGMRDHWYLLFEEQDKRIVDGVIHRYASDGISNGKVIYNYYPRWYADKVENKEVYDSQGNAFDGTEVYHEGQGWTLAKLTKFTFVTDRKQKNSDFHFPLLRLPDIMLIYAEAVNELNGGPDAEAYNQVNRIRTRAHATPFSGMNQDEFRSAVLEERARELAYEADRRYDLFRWGIYLDVMNAIDMDEHNVTKRRLERNLLYPIPTSEVNSNDKIDSNNPGW	not soluble
MAHHHHHHMEEGDQATDAAETSALAANTLTREEQPDERSKNEVTLLEIKRKVQNEKEAQKDDNKQRKFKIINYTSKDSLVSKVEKEFFLFFCFLCGFNCLISETDVADLPRRKTDGSIIFPFKKIVHKKYYKTKKECILIRRREDALEVQFRILCKECGVPIGYVNSLADDNAYVYYYDYSFVRSQTKSRLFKDVSL	not soluble
MSLSGPRNQILVSITDAPKIHILDPSTEYCVGDYVAYQLNGVAPFMIKYEFNGIPLKSKERSSQFVRLASEPGIISITSLQDSSSQCIVDFTNPKLKSEFDDLSLNIHPIPSVTVSQGNYVTEDIREGDQAEVIFSFEGTPPFSLTYVRTEETDGKHGKRRSQVVETHKVTDIYSHEYKVITSLQGTYEAIEITDAYCFAKNDLFFNNEGHHHHHH	soluble
MHHHHHHSSGVDLGTENLYFQSMDLRVQELIKLICNVQAMEEMMMEMKYNTKKAPLGKLTVAQIKAGYQSLKKIEDCIRAGQHGRALMEACNEFYTRIPHDFGLRTPPLIRTQKELSEKIQLLEALGDIEIAIKLVKTELQSPEHPLDQHYRNLHCALRPLDHESYEFKVISQYLQSTHAPTHSDYTMTLLDLFEVEKDGEKEAFREDLHNRMLLWHGSRMSNWVGILSHGLRIAHPEAPITGYMFGKGIYFADMSSKSANYCFASRLKNTGLLLLSEVALGQCNELLEANPKAEGLLQGKHSTKGLGKMAPSSAHFVTLNGSTVPLGPASDTGILNPDGYTLNYNEYIVYNPNQVRMRYLLKVQFNF	soluble
MKVTLSVLKADIGSVGGHTLPSRKVLAKVEEVVREEVGRLLLDAYVFHIGDDIVLLLSHTRGVRNQEVHALAWKAFREGTEVAKAEGLYGAGQDLLKDAFTGNLHGLGPQVAEMEFTERPAEPFMVLAADKTEPGAFNLPLYLAFADPMYSSGLLLSPELRPGFRFRIMDLAQTERDSYIELDAPERLYDIATLLRDSHRFAIESIWSRKHGEQAAVVSTTRLRNIAGRYVGKDDPVAIVRTQKIFPATEEFGPVFALAPYVAGDTRGSHHMPLMPVRANTPASTFFCVPMVCGLAFSLREGRLSEPVDLFADPVWEAVRAKVVEKAQEMRRQGFYGPAMLPMEELEYTGIAERLKALEREFS	soluble
MFNLGSMFNLGPSEPVVGKASILLECPAGKAFKFIGENLFLNYPRWSPEVKELEQLTHGPVCLGTIARQVRVDQGHRSESKFRITIYEPDRRVAFAGISDPFRCVYELLDEQNSGSTRLLFKFELLEIQMIMRPFEPMIRTAVQDGAERTVQNIKRLVESEPGALEHHHHHH	soluble
KPTEPHQFAQQVLYDLDQQPRIIAQLSHQQPMLLYFWGTWCRYCQFTSAAVQQLANEKIPILTIALKSGDEQDISNNYLTQQKYTFPTINDPDGNIAKNWTIQATPTIIFIKDGKIVEYTTGLTSYWGLKSRLW	not soluble
MAHHHHHHMAPVIPKSSNEGKDYSVASGSVDTPVLDQLVGYYVNIQSRKMYYKDFLRIEHQAVRWAFADIRKNSEALAHGLLQTGLRPGQRVLAIQPCNCETFVLQLACAKIGALLAVVPHHNISADKLRFYLNEFQPHHLIAREWIVVPEVKQGVLVERNMHFWDMIYNVIPELGLSYPGQRFQWVHSQEFFFLKKVVITDHNMNLLGVTPMRKMLVWGPFSYYEQRLRRLSALLHPDDPILALEDPHPALEDKLHITYSHRNCINAGFLFGNLMGLKAESRFGVMPNHHVDPVGAIVAPYAALTTGAVLVHIHSDMFTDDHAINGIEKLCVEEVVGMLGKKSDFDLLLRHAGNFDADQYEHLKWVVLFEDASEPTVGDEYLQKLAKELGLEDVFVFRGPLESAYMVMWRSLKRARWEMVPHVEAKVVGDRGTADARILAANTRGNLKLKGPHISAGYYNNAGLLTELVDERGFCSTSREAVMDERGQLTLHGTQLY	not soluble
MGEAAVAEGPCPLLEDSFTRFSSQSNVYGLAGGADGRGELLAATLKGKVLGFRYQDLRQKIRPVAKELQFNYIPVDAEIVSIDTFNKSPPKRGLVVGITFIKDSGDKGSPFLNIYCDYEPGSEYNLDSIAESCLNLELQFTPFQLCHAEVQVGDQLETVFLLSGNDPAIHLYKENEGLHQFEEQPVENLFPELTNLTSSVLWLDVHNLPGSSQRLSALGCQSGYVRVAHVDQKNQEILQTWTIQQDGPISRVIVFSLSASEATQDSPQQEGYSLLVASMLEPAVVYWDLLNKGLDDQLLLPGSDQFDSVLCGLVTDVDLDGQLEVLVATYGQELLCYKYRGLPEDSRGFRLLWRRSFASPLLAMAHVDLTGDGLRELAVISLKGVHILQHSLIQASELVLTRLRHQVEQRKHQQGLGDRVGPRPVEHPAS	soluble
MDAVDRGVYFDEDFHVRILDVDKYNASKSLQDNTNVFINNIQNMQGLVDKYVSAIDQQVERLEAEKLKAIGLRNRVAALSEERKRKQKEQERMLAEKQEELERLQMEEQSLIKVKGEQELMIQKLSDSSSGAAYV	not soluble
MSLKISHIDLGEHPILLAPMEDVTDPAFRLMCKKFGADMVYTEFVSSDALIRAVSKTAQKLSISDEERPVAIQIYGKDTETMVEAAKIVEQAQPDILDINFGCPVKRVAGKGAGAGMLQNIPKMLEITRAVVDAVKIPVTVKTRLGWDANNKIIVDLAEQLQDCGIAALTIHGRTRAQMYTGEADWTLIGEVKNNQRMHIPIIGNGDVTTPQRCKECFDRYGVDAVMIGRASFGRPWIFKEVKHYLETGEELPPLSFEWCMEVLRQEVIDSVNLLDERRGILHVRRHLAASPLFKGIPNFKETRIAMLRAETKEELFRIFETIPEKVNSLLDEGHHHHHH	soluble
MSKIVEVSKSPYAKLKTIPVGSVRVNGFMGKYFETLVNVTLPTQYDLLENTGRLDNFRIAAGKMEGSYKTLFPFDDTDVYKWAETVSFALANRKLPELEKILDSVIEEVKAAQDEDGYLGTYLSGDRKKERWTNLAWNHELYNAGHLIQAAVAHRRVTGKNTLFEVAKRFADHIYNTFGPEKKEGAPGHPEVEMALVELYRETGDRKYLDLARYFIYARGKGLASVPRNPGPEYFIDHKPFVELEEITGHAVRALYLCSGATDLYLETGDEKIWQALNRLWENFVTKKMYITGGAGSRHDWESFGEEYELPNRRSYAESCASIANFMWNFRMLLATGDGKFADVMEQVLYNGLLSGISLDGKHYFYFNPLEDYGRTRRQKWFDCACCPPNLARFIVSFPGYMYTTSDDGVQVHLYEKSTARLDFKGSVVEIEQETDYPWSGEVAFTIKTDIEEPFSIYLRLPSWADDFVLRVDGKAVIAKPQNGYVKLSQSWKGKHTVELSLPMKAVFIEAHPFVRDDLGKAAVKRGPVVYCIEQADNPDFHVWTLVLNSESLKEEKGKILDREAVFLKGTGRALDISEWEGKLYRKLSEVREKTVEFTLIPYHMWANREPGAMAVWLKR	soluble
